From the RNAGym collection of RNA variant scans (doi:10.7554/elife.80360)

B1: CPEB3 Ribozyme (parent)
chain: GGGGGCCACAGCAGAAGCGUUCACGUCGCGGCCCCUGUCAGAUUCUGGUGAAUCUGCGAAUUCUGCUGU

Variants of: B1
Assay: self-cleavage, relative activity (ratio to wild type); higher = more cleavage; co-transcriptional
In the case of GGGGGCCACAGCAGAAGCGUUCACGUCGCGGCCCCUGUCAGACUCUGGUGAAUCUGCGAAAUCUGCUGU [U43C U61A], the self-cleavage is reported as 0.764.
Variant GGGGGCCACAGCAGAAGCGUUCACGUCGCGGCCCCUGUCAGACUCUGGUGAAUCUGCGAACUCUGCUGU [U43C U61C] has a self-cleavage of 0.511.
Variant GGGGGCCACAGCAGAAGCGUUCACGUCGCGGCCCCUGUCAGACUCUGGUGAAUCUGCGAAGUCUGCUGU [U43C U61G] has a self-cleavage of 0.562.
Variant GGGGGCCACAGCAGAAGCGUUCACGUCGCGGCCCCUGUCAGACUCUGGUGAAUCUGCGAAUGCUGCUGU [U43C U62G] has a self-cleavage of 0.783.
GGGGGCCACAGCAGAAGCGUUCACGUCGCGGCCCCUGUCAGACUCUGGUGAAUCUGCGAAUUCUGCUGC [U43C U69C] gave a self-cleavage of 1.07.
Work on GGGGGCCACAGCAGAAGCGUUCACGUCGCGGCCCCUGUCAGACUCUGGUGAAUCUGCGAAUUCUGCUGG [U43C U69G] yielded a self-cleavage of 1.03.
For GGGGGCCACAGCAGAAGCGUUCACGUCGCGGCCCCUGUCAGAGUUUGGUGAAUCUGCGAAUUCUGCUGU [U43G C45U], the self-cleavage was 1.02.
For GGGGGCCACAGCAGAAGCGUUCACGUCGCGGCCCCUGUCAGAGUCUGGUGAAUUUGCGAAUUCUGCUGU [U43G C54U], the self-cleavage was 0.662.
With GGGGGCCACAGCAGAAGCGUUCACGUCGCGGCCCCUGUCAGAGUCUGGUGAAUCUGGGAAUUCUGCUGU [U43G C57G] the self-cleavage was 0.308.
GGGGGCCACAGCAGAAGCGUUCACGUCGCGGCCCCUGUCAGAGUCUGGUGAAUCUGUGAAUUCUGCUGU [U43G C57U] gave a self-cleavage of 0.385.
In the case of GGGGGCCACAGCAGAAGCGUUCACGUCGCGGCCCCUGUCAGAGUCUGGUGAAUCUGCGAAUUAUGCUGU [U43G C63A], the self-cleavage is reported as 0.436.
For GGGGGCCACAGCAGAAGCGUUCACGUCGCGGCCCCUGUCAGAGUCUGGUGAAUCUGCGAAUUUUGCUGU [U43G C63U], the self-cleavage was 0.751.
For GGGGGCCACAGCAGAAGCGUUCACGUCGCGGCCCCUGUCAGAGUCUGGUGAAUCUGCGAAUUCUGGUGU [U43G C66G], the self-cleavage was 0.484.
For GGGGGCCACAGCAGAAGCGUUCACGUCGCGGCCCCUGUCAGAGUCUAGUGAAUCUGCGAAUUCUGCUGU [U43G G47A], the self-cleavage was 0.95.
Variant GGGGGCCACAGCAGAAGCGUUCACGUCGCGGCCCCUGUCAGAGUCUUGUGAAUCUGCGAAUUCUGCUGU [U43G G47U] has a self-cleavage of 0.999.
GGGGGCCACAGCAGAAGCGUUCACGUCGCGGCCCCUGUCAGAGUCUGUUGAAUCUGCGAAUUCUGCUGU [U43G G48U] gave a self-cleavage of 1.01.
Variant GGGGGCCACAGCAGAAGCGUUCACGUCGCGGCCCCUGUCAGAGUCUGGUCAAUCUGCGAAUUCUGCUGU [U43G G50C] has a self-cleavage of 0.864.
Work on GGGGGCCACAGCAGAAGCGUUCACGUCGCGGCCCCUGUCAGAGUCUGGUGAAUCUUCGAAUUCUGCUGU [U43G G56U] yielded a self-cleavage of 0.385.
For GGGGGCCACAGCAGAAGCGUUCACGUCGCGGCCCCUGUCAGAGUCUGGUGAAUCUGCAAAUUCUGCUGU [U43G G58A], the self-cleavage was 0.881.
Variant GGGGGCCACAGCAGAAGCGUUCACGUCGCGGCCCCUGUCAGAGUCUGGUGAAUCUGCGAAUUCUACUGU [U43G G65A] has a self-cleavage of 0.453.
GGGGGCCACAGCAGAAGCGUUCACGUCGCGGCCCCUGUCAGAGUCUGGUGAAUCUGCGAAUUCUGCUCU [U43G G68C] showed a self-cleavage of 0.902.
GGGGGCCACAGCAGAAGCGUUCACGUCGCGGCCCCUGUCAGAGGCUGGUGAAUCUGCGAAUUCUGCUGU [U43G U44G] gave a self-cleavage of 0.83.
For GGGGGCCACAGCAGAAGCGUUCACGUCGCGGCCCCUGUCAGAGUCAGGUGAAUCUGCGAAUUCUGCUGU [U43G U46A], the self-cleavage was 0.959.
GGGGGCCACAGCAGAAGCGUUCACGUCGCGGCCCCUGUCAGAGUCUGGUGAACCUGCGAAUUCUGCUGU [U43G U53C] gave a self-cleavage of 0.874.
GGGGGCCACAGCAGAAGCGUUCACGUCGCGGCCCCUGUCAGAGUCUGGUGAAUCCGCGAAUUCUGCUGU [U43G U55C] gave a self-cleavage of 0.312.
GGGGGCCACAGCAGAAGCGUUCACGUCGCGGCCCCUGUCAGAGUCUGGUGAAUCUGCGAAAUCUGCUGU [U43G U61A] gave a self-cleavage of 0.701.
For GGGGGCCACAGCAGAAGCGUUCACGUCGCGGCCCCUGUCAGAGUCUGGUGAAUCUGCGAAGUCUGCUGU [U43G U61G], the self-cleavage was 0.265.
For GGGGGCCACAGCAGAAGCGUUCACGUCGCGGCCCCUGUCAGAGUCUGGUGAAUCUGCGAAUACUGCUGU [U43G U62A], the self-cleavage was 0.529.
With GGGGGCCACAGCAGAAGCGUUCACGUCGCGGCCCCUGUCAGAGUCUGGUGAAUCUGCGAAUCCUGCUGU [U43G U62C] the self-cleavage was 0.437.
Variant GGGGGCCACAGCAGAAGCGUUCACGUCGCGGCCCCUGUCAGAGUCUGGUGAAUCUGCGAAUUCGGCUGU [U43G U64G] has a self-cleavage of 0.649.
With GGGGGCCACAGCAGAAGCGUUCACGUCGCGGCCCCUGUCAGAGUCUGGUGAAUCUGCGAAUUCUGCUGA [U43G U69A] the self-cleavage was 0.954.
With GGGGGCCACAGCAGAAGCGUUCACGUCGCGGCCCCUGUCAGAGUCUGGUGAAUCUGCGAAUUCUGCUGC [U43G U69C] the self-cleavage was 1.03.
Variant GGGGGCCACAGCAGAAGCGUUCACGUCGCGGCCCCUGUCAGAUACUGGUGCAUCUGCGAAUUCUGCUGU [U44A A51C] has a self-cleavage of 0.939.
GGGGGCCACAGCAGAAGCGUUCACGUCGCGGCCCCUGUCAGAUACUGGUGGAUCUGCGAAUUCUGCUGU [U44A A51G] showed a self-cleavage of 0.936.
GGGGGCCACAGCAGAAGCGUUCACGUCGCGGCCCCUGUCAGAUACUGGUGACUCUGCGAAUUCUGCUGU [U44A A52C] showed a self-cleavage of 0.912.
GGGGGCCACAGCAGAAGCGUUCACGUCGCGGCCCCUGUCAGAUACUGGUGAGUCUGCGAAUUCUGCUGU [U44A A52G] gave a self-cleavage of 0.988.
For GGGGGCCACAGCAGAAGCGUUCACGUCGCGGCCCCUGUCAGAUACUGGUGAAUCUGCGAGUUCUGCUGU [U44A A60G], the self-cleavage was 0.725.
For GGGGGCCACAGCAGAAGCGUUCACGUCGCGGCCCCUGUCAGAUAAUGGUGAAUCUGCGAAUUCUGCUGU [U44A C45A], the self-cleavage was 0.886.
GGGGGCCACAGCAGAAGCGUUCACGUCGCGGCCCCUGUCAGAUACUGGUGAAUUUGCGAAUUCUGCUGU [U44A C54U] gave a self-cleavage of 0.923.
